Experiments:
β-arrestin1 = β-arrestin1 (UniProt P49407); experiment: GST pull-down from cell lysate; settings: reference: YFP-GCN2 wild type; sites T899
β-arrestin2 = β-arrestin2 (UniProt P32121); experiment: GST pull-down from cell lysate; settings: reference: YFP-GCN2 wild type; sites T899

binding against the reference (β-arrestin1): stronger | binding against the reference (β-arrestin2): stronger
Substance: GCN2 1-1649 (from UniProt Q9P2K8) YFP-GCN2 T899A
